Results: article PMC7820290

Tests used:
Assay in all cases: co-condensation microscopy
N175-419 (SARS-CoV-2) = N175-419 (SARS-CoV-2) (UniProt P0DTC9)
N175-364 (SARS-CoV-2) = N175-364 (SARS-CoV-2) (UniProt P0DTC9)
[1] = target: SARS-CoV-2 nucleocapsid (N), wild type (SARS-CoV-2) (UniProt P0DTC9)
N1-246 (SARS-CoV-2) = N1-246 (SARS-CoV-2) (UniProt P0DTC9)
N49-246 (SARS-CoV-2) = N49-246 (SARS-CoV-2) (UniProt P0DTC9)

“GGGAUUAAAGGUUUAUACCUUCCCAGGUAACAAACCAACCAACUUUCGAUCUCUUGUAGAUCUGUUCUCUAAACGAACUUUAAAAUCUGUGUGGCUGUCACUCGGCUGCAUGCUUAGUGCACUCACGCAGUAUAAUUAAUAACUAAUUACUGUCGUUGACAGGACACGAGUAACUCGUCUAUCUUCUGCAGGCUGCUUACGGUUUCGUCCGUGUUGCAGCCGAUCAUCAGCACAUCUAGGUUUCGUCCGGGUGUGACCGAAAGGUAAG [UTR265]” showed a binding signal (% fluorescence in condensates) (N175-419 (SARS-CoV-2)) of 9.3, a binding signal (% fluorescence in condensates) (N175-364 (SARS-CoV-2)) of 8.4 and a binding signal (% fluorescence in condensates) [1] of 35. It also gave a binding signal (% fluorescence in condensates) (N1-246 (SARS-CoV-2)) of 13 and a binding signal (% fluorescence in condensates) (N49-246 (SARS-CoV-2)) of 18.
